Data from publication PMC5494296.
“And” between values parts separate entries of the source, which are not always exact repeats. Identical values can stand only once. Each block holds one substance with its values, some of them ahead of it.

Key:
Assay in all cases: SEC; size-exclusion chromatography of the tag-free proteins after cleavage of the MBP fusion proteins with factor Xa; self-association (oligomeric state); SEC data not shown
[1] = molecular target: Y138A full-length human phenylalanine hydroxylase (human) (UniProt P00439)
[2] = molecular target: Y138E full-length human phenylalanine hydroxylase (human) (UniProt P00439)
[3] = molecular target: Y138F full-length human phenylalanine hydroxylase (human) (UniProt P00439)
[4] = molecular target: Y138K full-length human phenylalanine hydroxylase (human) (UniProt P00439)
[5] = molecular target: double truncated form ΔN102/ΔC24-hPAH (catalytic domain of human phenylalanine hydroxylase) (human) (UniProt P00439)
[6] = molecular target: wild-type human phenylalanine hydroxylase, full-length (wt-hPAH) (human) (UniProt P00439)
[7] = molecular target: ΔN102/ΔC24-Y138A human phenylalanine hydroxylase catalytic domain (human) (UniProt P00439)
[8] = molecular target: ΔN102/ΔC24-Y138E human phenylalanine hydroxylase catalytic domain (human) (UniProt P00439)
[9] = molecular target: ΔN102/ΔC24-Y138F human phenylalanine hydroxylase catalytic domain (human) (UniProt P00439)
[10] = molecular target: ΔN102/ΔC24-Y138K human phenylalanine hydroxylase catalytic domain (human) (UniProt P00439)

stoichiometry N [1]: 4 and 2
Substance: Y138A full-length human phenylalanine hydroxylase (from UniProt P00439 1-452) (enzyme)

stoichiometry N [2]: 4 and 2
Substance: Y138E full-length human phenylalanine hydroxylase (from UniProt P00439 1-452) (enzyme)

stoichiometry N [3]: 4 and 2
Substance: Y138F full-length human phenylalanine hydroxylase (from UniProt P00439 1-452) (enzyme)

stoichiometry N [4]: 2 and 4
Substance: Y138K full-length human phenylalanine hydroxylase (from UniProt P00439 1-452) (enzyme)

stoichiometry N [5]: 2
Substance: double truncated form ΔN102/ΔC24-hPAH (catalytic domain of human phenylalanine hydroxylase) (from UniProt P00439 103-428) (domain or fragment)

stoichiometry N [6]: 4 and 2
Substance: wild-type human phenylalanine hydroxylase, full-length (wt-hPAH) (from UniProt P00439 1-452) (enzyme)

stoichiometry N [7]: 2
Substance: ΔN102/ΔC24-Y138A human phenylalanine hydroxylase catalytic domain (from UniProt P00439 103-428) (domain or fragment)

stoichiometry N [8]: 2
Substance: ΔN102/ΔC24-Y138E human phenylalanine hydroxylase catalytic domain (from UniProt P00439 103-428) (domain or fragment)

stoichiometry N [9]: 2
Substance: ΔN102/ΔC24-Y138F human phenylalanine hydroxylase catalytic domain (from UniProt P00439 103-428) (domain or fragment)

stoichiometry N [10]: 2
Substance: ΔN102/ΔC24-Y138K human phenylalanine hydroxylase catalytic domain (from UniProt P00439 103-428) (domain or fragment)
